Laboratory results from PMC3024583.
Like-named read-outs stand apart in the source and are kept apart here.

How the values were obtained:
Test in all cases: EMSA
[1] = biological target: T1, CSL (CBF1);Notch1 RAMANK wild-type;MAML1 (human?;human;human?, UniProt Q06330;P46531;Q92585 23-449;1760-2126;13-74, ||)
[2] = biological target: T1, CSL (CBF1);Notch1 RAMANK wild-type;MAML1; remark: listed apart in the source
[3] = biological target: T1, CSL (CBF1);Notch1 RAMANK wild-type;MAML1; remark: listed apart in the source
[4] = biological target: T1, CSL (CBF1);Notch1 RAMANK wild-type;MAML1; remark: listed apart in the source
[5] = biological target: CSL (CBF1);Notch1 RAMANK R1985A;MAML1 (human?;human;human?, UniProt Q06330;P46531;Q92585 23-449;1760-2126;13-74, |R1984A|)
[6] = biological target: T1, CSL (CBF1);Notch1 RAMANK wild-type;MAML1; remark: listed apart in the source
[7] = biological target: T1, CSL (CBF1);Notch1 RAMANK wild-type;MAML1; remark: listed apart in the source

T1 sequence (Q06330 23-449, chain 1 of 3): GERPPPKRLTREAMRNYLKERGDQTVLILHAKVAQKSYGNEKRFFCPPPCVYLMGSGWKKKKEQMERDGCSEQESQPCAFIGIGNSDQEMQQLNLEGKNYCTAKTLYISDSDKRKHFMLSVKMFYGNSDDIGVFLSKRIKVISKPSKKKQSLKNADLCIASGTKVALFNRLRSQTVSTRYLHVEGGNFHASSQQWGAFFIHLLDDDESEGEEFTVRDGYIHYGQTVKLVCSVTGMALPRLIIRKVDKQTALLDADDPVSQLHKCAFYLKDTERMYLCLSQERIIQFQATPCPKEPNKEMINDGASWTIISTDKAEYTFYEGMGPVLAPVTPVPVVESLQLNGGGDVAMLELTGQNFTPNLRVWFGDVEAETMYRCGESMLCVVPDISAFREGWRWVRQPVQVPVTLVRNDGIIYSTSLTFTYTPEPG
T1 sequence (P46531 1760-2126, chain 2 of 3): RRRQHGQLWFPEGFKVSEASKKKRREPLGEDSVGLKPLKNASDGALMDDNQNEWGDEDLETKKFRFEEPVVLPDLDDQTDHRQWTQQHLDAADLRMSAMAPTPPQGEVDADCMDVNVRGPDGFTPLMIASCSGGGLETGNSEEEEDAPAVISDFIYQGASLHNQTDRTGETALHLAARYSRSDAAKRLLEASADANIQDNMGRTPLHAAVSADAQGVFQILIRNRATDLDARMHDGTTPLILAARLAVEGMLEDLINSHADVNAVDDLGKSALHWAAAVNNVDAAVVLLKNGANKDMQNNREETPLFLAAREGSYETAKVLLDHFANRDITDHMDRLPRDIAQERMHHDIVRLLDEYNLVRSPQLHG
T1 sequence (Q92585 13-74, chain 3 of 3): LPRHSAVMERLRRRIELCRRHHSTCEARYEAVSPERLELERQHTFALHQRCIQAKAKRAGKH
CSL (CBF1);Notch1 RAMANK R1985A;MAML1, sequence (Q06330 23-449, chain 1 of 3): as the sequence (Q06330 23-449, chain 1 of 3) above
CSL (CBF1);Notch1 RAMANK R1985A;MAML1, sequence (P46531 1760-2126 R1984A, chain 2 of 3): as the sequence (P46531 1760-2126, chain 2 of 3) above, with R225A counted along it
CSL (CBF1);Notch1 RAMANK R1985A;MAML1, sequence (Q92585 13-74, chain 3 of 3): as the sequence (Q92585 13-74, chain 3 of 3) above

B1: HES4 SPS (dsDNA)
DNA 1: GGCGAGTGTGGGAAAGAATGCGGAGCCGGGTTCACACACCCCGCGG
DNA 2: CCGCGGGGTGTGTGAACCCGGCTCCGCATTCTTTCCCACACTCGCC
B1: binds [1].

B2: FJX1 SPS (dsDNA)
DNA 1: GGACCTGTGAATCGCGCCCACCGGAGGGTCTCACAAGC
DNA 2: GCTTGTGAGACCCTCCGGTGGGCGCGATTCACAGGTCC
B2: binds [1].

B3: 15bp SPS (SYT14) (dsDNA)
DNA 1: GCCAAACATGGGAAATTGCTGCTATTCTTTTCCCACTACAGCC
DNA 2: GGCTGTAGTGGGAAAAGAATAGCAGCAATTTCCCATGTTTGGC
B3: binds [2].

B4: 17bp SPS (CUL1) (dsDNA)
DNA 1: GAATTACGTGGGAATTATAAATAAATTACTCTTCACACTCTTATCC
DNA 2: GGATAAGAGTGTGAAGAGTAATTTATTTATAATTCCCACGTAATTC
B4: binds [3].

B5: Single-site control (dsDNA)
DNA 1: GGAAACACGCCGTGGGAAAAAATTTGGC
DNA 2: GCCAAATTTTTTCCCACGGCGTGTTTCC
B5: binds [4]; binds [5].

B6: HES5_E_long human (dsDNA)
DNA 1: GCGGAGTGTGGGAACGGCCGCGGCGCCCGGACTCCAGGCGCCAGGCCGC
DNA 2: GCGGCCTGGCGCCTGGAGTCCGGGCGCCGCGGCCGTTCCCACACTCCGC
B6: binds [6].

B7: Hes5_E_long mouse (dsDNA)
DNA 1: GCCGAGTGTGGGAACGGCCGCGGCGCCCGGACCCCAGGCGCCGGGCCGC
DNA 2: GCGGCCCGGCGCCTGGGGTCCGGGCGCCGCGGCCGTTCCCACACTCGGC
B7: binds [6].

B8: HES1 SPS (dsDNA)
DNA 1: AGTTACTGTGGGAAAGAAAGTTTGGGAAGTTTCACACGAGCCGTTC
DNA 2: GAACGGCTCGTGTGAAACTTCCCAAACTTTCTTTCCCACAGTAACT
B8: binds [7].
